# Data as given in PMC6108936 (Cell, 2018).
# Target: the molecule itself
# Assay: cryo-EM structure
protein,measurement,value
"Cps25 (natural protein, Saccharomyces cerevisiae, UniProt Q03323 1-175, looked up) MNESENSPQHNEVTVPMVEDTSSNADIPMEQIQREDNKNYDKHDNECFDMNGNHNNNSDNLQFDSVPSSATKDLKNIKSVTNQNVKIEESSSTNSVIEESSEPKISKLENVNLAATVGGSQTRKYLNTNVTPHLLAGMRLIAVQQPEDPLRVLGEYLIEQSNILKSGEKESNASK",binding result,binds
